According to the supplement of paper PMC9112550, “Optimization of the antimicrobial peptide Bac7 by deep mutational scanning” (BMC Biology, 2022):

Test system: Escherichia coli TOP10
Experiment: shrunken log2 fold change of peptide-encoding DNA abundance (4.5 h post-induction vs induction); higher = less antimicrobial activity (less host growth inhibition)
Settings: time post-induction: 4.5 h; library: site-saturation at positions 5, 18, 19, 20
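Also: peptides expressed intracellularly from a pBAD plasmid library in pooled LB shake-flask culture, induced with 0.3% L-arabinose, DNA abundance read by NGS, three biological replicates, DESeq2 with apeglm shrinkage.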

| Sequence | shrunken log2 fold change |
| --- | --- |
| RRIRGRPPRLPRPRPRPRFYPRP | 0.189 |
| RRIRGRPPRLPRPRPRPRGDPRP | 0.481 |
| RRIRGRPPRLPRPRPRPRGLPRP | 1.05 |
| RRIRGRPPRLPRPRPRPRGNPRP | 0.995 |
| RRIRGRPPRLPRPRPRPRGVPRP | 0.89 |
| RRIRGRPPRLPRPRPRPRHMPRP | 0.57 |
| RRIRGRPPRLPRPRPRPRKRPRP | 1.21 |
| RRIRGRPPRLPRPRPRPRLCPRP | 1.19 |
| RRIRGRPPRLPRPRPRPRLEPRP | 1.16 |
| RRIRGRPPRLPRPRPRPRLPPRP | 0.851 |
| RRIRGRPPRLPRPRPRPRLYPRP | 0.291 |
| RRIRGRPPRLPRPRPRPRNQPRP | 0.402 |
| RRIRGRPPRLPRPRPRPRPIPRP | 0.635 |
| RRIRGRPPRLPRPRPRPRQHPRP | 0.305 |
| RRIRGRPPRLPRPRPRPRQMPRP | -0.0496 |
| RRIRGRPPRLPRPRPRPRRSPRP | 0.767 |
| RRIRGRPPRLPRPRPRPRRWPRP | 0.841 |
| RRIRGRPPRLPRPRPRPRSMPRP | 0.666 |
| RRIRGRPPRLPRPRPRPRSPPRP | 0.449 |
| RRIRGRPPRLPRPRPRPRVPPRP | 0.356 |
| RRIRGRPPRLPRPRPRPRVSPRP | 0.45 |
| RRIRGRPPRLPRPRPRPRYFPRP | -0.0468 |
| RRIRGRPPRLPRPRPRPSADPRP | 1.91 |
| RRIRGRPPRLPRPRPRPSCGPRP | 0.451 |
| RRIRGRPPRLPRPRPRPSCVPRP | 0.499 |

| Sequence | shrunken log2 fold change |
| --- | --- |
| RRIRGRPPRLPRPRPRPSDDPRP | 0.108 |
| RRIRGRPPRLPRPRPRPSEEPRP | 0.503 |
| RRIRGRPPRLPRPRPRPSGHPRP | -0.202 |
| RRIRGRPPRLPRPRPRPSGKPRP | 0.367 |
| RRIRGRPPRLPRPRPRPSGMPRP | 0.48 |
| RRIRGRPPRLPRPRPRPSHMPRP | -0.207 |
| RRIRGRPPRLPRPRPRPSIFPRP | 0.415 |
| RRIRGRPPRLPRPRPRPSKSPRP | -0.0596 |
| RRIRGRPPRLPRPRPRPSLMPRP | 0.5 |
| RRIRGRPPRLPRPRPRPSMNPRP | 0.156 |
| RRIRGRPPRLPRPRPRPSNLPRP | -0.113 |
| RRIRGRPPRLPRPRPRPSNPPRP | 0.14 |
| RRIRGRPPRLPRPRPRPSPAPRP | 0.901 |
| RRIRGRPPRLPRPRPRPSPMPRP | 0.474 |
| RRIRGRPPRLPRPRPRPSQRPRP | 0.181 |
| RRIRGRPPRLPRPRPRPSRFPRP | 0.0371 |
| RRIRGRPPRLPRPRPRPSSRPRP | 0.372 |
| RRIRGRPPRLPRPRPRPSTAPRP | 0.926 |
| RRIRGRPPRLPRPRPRPSTHPRP | 0.159 |
| RRIRGRPPRLPRPRPRPSVMPRP | 0.107 |
| RRIRGRPPRLPRPRPRPSVNPRP | 0.2 |
| RRIRGRPPRLPRPRPRPSVPPRP | 0.215 |
| RRIRGRPPRLPRPRPRPSVTPRP | 0.708 |
| RRIRGRPPRLPRPRPRPSWEPRP | 0.0693 |
| RRIRGRPPRLPRPRPRPSWKPRP | 0.437 |

| Sequence | shrunken log2 fold change |
| --- | --- |
| RRIRGRPPRLPRPRPRPSWSPRP | 0.425 |
| RRIRGRPPRLPRPRPRPSWYPRP | -0.102 |
| RRIRGRPPRLPRPRPRPSYLPRP | -0.479 |
| RRIRGRPPRLPRPRPRPTANPRP | 1.09 |
| RRIRGRPPRLPRPRPRPTCCPRP | 1.2 |
| RRIRGRPPRLPRPRPRPTDAPRP | 1.14 |
| RRIRGRPPRLPRPRPRPTDLPRP | -0.109 |
| RRIRGRPPRLPRPRPRPTFCPRP | 0.46 |
| RRIRGRPPRLPRPRPRPTFPPRP | 0.347 |
| RRIRGRPPRLPRPRPRPTHMPRP | 0.745 |
| RRIRGRPPRLPRPRPRPTIPPRP | -0.0601 |
| RRIRGRPPRLPRPRPRPTLSPRP | 0.313 |
| RRIRGRPPRLPRPRPRPTLYPRP | 0.598 |
| RRIRGRPPRLPRPRPRPTPCPRP | 0.662 |
| RRIRGRPPRLPRPRPRPTPSPRP | 0.954 |
| RRIRGRPPRLPRPRPRPTQKPRP | 1.22 |
| RRIRGRPPRLPRPRPRPTSDPRP | 0.931 |
| RRIRGRPPRLPRPRPRPTSHPRP | 0.64 |
| RRIRGRPPRLPRPRPRPTTHPRP | 0.875 |
| RRIRGRPPRLPRPRPRPTVMPRP | 0.074 |
| RRIRGRPPRLPRPRPRPTWGPRP | 0.469 |
| RRIRGRPPRLPRPRPRPTWLPRP | 2.72 |
| RRIRGRPPRLPRPRPRPTYMPRP | 0.0228 |
| RRIRGRPPRLPRPRPRPVALPRP | 0.639 |
| RRIRGRPPRLPRPRPRPVCEPRP | 1.06 |
